# Measured values taken from patent publication US20200361992A1 (PROTAGONIST THERAPEUTICS, published 2020).
# Starred links: 1 amine or outer side, 2 acyl side, 3 side chain; linkers in the order of their positions; H or OH if unused. Positions of bridges follow the written chain, without caps; N, C: chain ends. Non-standard residues stand in square brackets, D forms with d. Groups on a side chain read outwards from the residue. Primed or numbered codes have the meaning given here. No end group written: not given here. *: point of attachment. Npc″ = L-nipecotic acid, O=C([C@H]1CCCN([*:1])C1)[*:2]; PEG12 = NCCOCCOCCOCCOCCOCCOCCOCCOCCOCCOCCOCCOCCC(=O)O; γGlu = O=C(O)[C@H](CCC(=O)[*:2])N[*:1]; Palmitoyl = CCCCCCCCCCCCCCCC(=O)*; NMeF = CN[C@@H](Cc1ccccc1)C(=O)O; β3hF = N[C@H](CC(=O)O)Cc1ccccc1; Isovaleryl = CC(C)CC(=O)*; Npc = nipecotic acid
# T1: human ferroportin (SLC40A1) fused in frame with the GFP protein, stably expressed in HEK293 cells (human, UniProt Q9NP59 1-571)
# T1 sequence (looked up): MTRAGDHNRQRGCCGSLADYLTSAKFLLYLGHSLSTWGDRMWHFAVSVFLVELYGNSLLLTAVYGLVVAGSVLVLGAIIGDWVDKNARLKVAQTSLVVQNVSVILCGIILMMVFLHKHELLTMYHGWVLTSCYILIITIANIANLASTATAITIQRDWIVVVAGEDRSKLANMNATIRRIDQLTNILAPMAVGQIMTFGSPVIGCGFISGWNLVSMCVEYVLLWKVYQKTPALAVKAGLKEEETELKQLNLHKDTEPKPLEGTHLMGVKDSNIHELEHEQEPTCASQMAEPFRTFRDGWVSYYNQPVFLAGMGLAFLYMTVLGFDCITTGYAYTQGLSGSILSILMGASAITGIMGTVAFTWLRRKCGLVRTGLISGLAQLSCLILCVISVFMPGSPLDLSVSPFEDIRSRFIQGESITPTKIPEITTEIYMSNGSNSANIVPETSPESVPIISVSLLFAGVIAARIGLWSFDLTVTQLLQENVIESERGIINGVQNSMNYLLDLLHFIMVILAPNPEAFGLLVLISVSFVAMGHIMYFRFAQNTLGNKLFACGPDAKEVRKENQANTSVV
# B1: Compd ID 175 (peptide)
# peptide: DTHXPCIKXKKC
# modifications: N-terminal isovaleric acid; Dpa 4; (D)Lys 8; bhPhe 9; Lys(Peg11-Palm) 10; dLys_Ac 11; C-terminal amide; disulfide between the two Cys (6 and 12)
# B2: Compd ID 171 (peptide)
# peptide: DTHXPCIKFKCK
# modifications: N-terminal isovaleric acid; bhPhe 4; (D)Lys 8; Lys(Peg11-Palm) 10; (D)Lys 12; C-terminal amide; disulfide between the two Cys (6 and 11)
# B3: Compd ID 170 (peptide)
# peptide: DTHXPCIKXKCK
# modifications: N-terminal isovaleric acid; Dpa 4; (D)Lys 8; bhPhe 9; Lys(Peg11-Palm) 10; (D)Lys 12; C-terminal amide; disulfide between the two Cys (6 and 11)
# B4: Compd ID 169 (peptide)
# peptide: DTHXPCIKXKKC
# modifications: N-terminal isovaleric acid; D-Asp 1; Dpa 4; (D)Lys 8; bhPhe 9; Lys(Peg11-Palm) 10; (D)Lys 11; C-terminal amide; disulfide between the two Cys (6 and 12)
# B5: Compd ID 518 (peptide)
# chain: Isovaleryl-DTHF[Npc″]CI[dK][NMeF]
# modifications: not fully specified (C-terminus); also: dimer: two monomers linked through IDA-[(b-Ala)-Palm]-NH2
# B6: Compd ID 515 (peptide)
# chain: DTHXPCIKX
# modifications: N-terminal isovaleric acid on each monomer; BIP 4; D-Lys 8; NMe-Phe 9; the two monomers linked through IDA-[(b-Ala)-Palm]; -NH2
# B7: Compd ID 508 (peptide)
# chain: DTHFPCIKX
# modifications: N-terminal isovaleric acid on each monomer; a-MePhe 9; the two monomers linked through IDA-[(b-Ala)-Palm]; -NH2
# B8: Compd ID 503 (peptide)
# chain: DTHFPCIKF
# modifications: N-terminal isovaleric acid on each monomer; D-Lys 8; the two monomers linked through Lys[isoGlu-Palm]-NH2
# B9: Compd ID 517 (peptide)
# chain: DTHFPCIKX
# modifications: not fully specified; N-terminal isovaleric acid on each monomer; D-Lys 8; b-homoPhe 9; the two monomers linked through IDA-[(b-Ala)-Palm]; -NH2
# B10: Compd ID 514 (peptide)
# chain: DTHFPCIKX
# modifications: N-terminal isovaleric acid on each monomer; D-Lys 8; NMe-Phe 9; the two monomers linked through IDA-[(b-Ala)-Palm]; -NH2
# B11: Compd ID 501 (peptide)
# chain: DTHFPCIKF
# modifications: N-terminal isovaleric acid on each monomer; the two monomers linked through K-Lys[isoGlu-Palm]-NH2
# B12: Compd ID 507 (peptide)
# chain: DTHFPCIKX
# modifications: N-terminal isovaleric acid on each monomer; NMe-Phe 9; the two monomers linked through IDA-[(b-Ala)-Palm]; -NH2
# B13: Compd ID 516 (peptide)
# chain: DTHFPCIKX
# modifications: N-terminal isovaleric acid on each monomer; b-homoPhe 9; the two monomers linked through IDA-[(b-Ala)-Palm]; -NH2
# B14: Compd ID 502 (peptide)
# chain: DTHFPCIKF
# modifications: N-terminal isovaleric acid on each monomer; the two monomers linked through [D-Lys]-Lys[isoGlu-Palm]-NH2
# B15: Compd ID 509 (peptide)
# chain: DTHFPCIIFK
# modifications: N-terminal isovaleric acid on each monomer; D-Lys 10; the two monomers linked through IDA-[(b-Ala)-Palm]; -NH2
# B16: Compd ID 225 (peptide)
# peptide: Isovaleryl-DTHFPCI[dK]([PEG12-Palmitoyl])F[dK]C-NH2
# modifications: disulfide 6-11
# SMILES: CCCCCCCCCCCCCCCC(=O)NCCOCCOCCOCCOCCOCCOCCOCCOCCOCCOCCOCCOCCC(=O)NCCCC[C@H]1NC(=O)[C@H]([C@@H](C)CC)NC(=O)[C@@H](NC(=O)[C@@H]2CCCN2C(=O)[C@H](Cc2ccccc2)NC(=O)[C@H](Cc2c[nH]cn2)NC(=O)[C@@H](NC(=O)[C@H](CC(=O)O)NC(=O)CC(C)C)[C@@H](C)O)CSSC[C@@H](C(N)=O)NC(=O)[C@@H](CCCCN)NC(=O)[C@H](Cc2ccccc2)NC1=O
# B17: Compd ID 227 (peptide)
# peptide: Isovaleryl-DTHFPCIK([γGlu-Palmitoyl])FKC-NH2
# modifications: disulfide 6-11
# SMILES: CCCCCCCCCCCCCCCC(=O)N[C@@H](CCC(=O)NCCCC[C@@H]1NC(=O)[C@H]([C@@H](C)CC)NC(=O)[C@@H](NC(=O)[C@@H]2CCCN2C(=O)[C@H](Cc2ccccc2)NC(=O)[C@H](Cc2c[nH]cn2)NC(=O)[C@@H](NC(=O)[C@H](CC(=O)O)NC(=O)CC(C)C)[C@@H](C)O)CSSC[C@@H](C(N)=O)NC(=O)[C@H](CCCCN)NC(=O)[C@H](Cc2ccccc2)NC1=O)C(=O)O
# B18: Ref. Compd 1 (peptide)
# peptide: DTHFPCIKFKPRSKGCK
# modifications: N-terminal isovaleric acid; Lys[PEG11-Palm] 10; C-terminal amide; disulfide between the two Cys (6 and 16)
# B19: RI-Mini Hepcidin (peptide)
# peptide: FICIPFHTD
# modifications: all residues D-amino acids (retro inverse); free N-terminus (Hy-); C-terminal amide
# Target: T1, human ferroportin (SLC40A1) fused in …
# Test: cell-based or functional assay
row,Binder,FPN IC50 [nM]
1,B1,5
2,B2,47
3,B3,10
4,B4,12
5,Isovaleryl-DTH[β3hF][Npc]CI[dK]FK([PEG12-Palmitoyl])C[dK]-NH2 (disulfide 6-11) [Compd ID 172],39

# Target: T1, human ferroportin (SLC40A1) fused in …
# Test: cell-based or functional assay
# Remark: another data set of the same source
row,Binder,FPN IC50 [nM]
1,B5,8
2,B6,26
3,Isovaleryl-DTHFPCIK[Phe(4-OCH2CH2NH2)]K-{Lys(isoGlu-Palm)-NH2} (also: dimer: two monomers linked through K-Lys[isoGlu-Palm]-NH2) [Compd ID 504],20
4,B7,9
5,B8,21
6,B9,5
7,B10,4
8,B11,28
9,Isovaleryl-DTHFPCI[dK]F-{IDA(βAla-Palm)-NH2} (also: dimer: two monomers joined through IDA) [Compd ID 506],4
10,B12,10
11,B13,6
12,B14,33
13,B15,433

# Target: T1, human ferroportin (SLC40A1) fused in …
# Test: cell-based or functional assay
# Remark: another data set of the same source
row,Binder,FPN IC50 [nM]
1,B16,26
2,Isovaleryl-DTHFPCI[dK]([PEG12-Palmitoyl])F[dR]C-NH2 (disulfide 6-11; not fully specified) [Compd ID 226],23
3,B17,114

# Target: T1, human ferroportin (SLC40A1) fused in …
# Test: cell-based or functional assay
# Remark: another data set of the same source
Binder,Potency EC50 [nM],Potency EC50 (nM)
B18,30,
B19,,> 10000
H-DTHFPICIF-NH2 [Mini-Hepcidin 1-9],712,
